Reference: publication PMC5736104 (Nature, 2017)

Target: the molecule itself
Assay: cryo-EM structure

B1: Hrd1, truncated after the RING finger domain (amino acids 1-407) (domain or fragment, S. cerevisiae, UniProt Q08109 1-407, looked up)
chain: MVPENRRKQLAIFVVVTYLLTFYCVYSATKTSVSFLQVTLKLNEGFNLMVLSIFILLNSTLLWQLLTKLLFGELRLIEHEHIFERLPFTIINTLFMSSLFHERYFFTVAFFGLLLLYLKVFHWILKDRLEALLQSINDSTTMKTLIFSRFSFNLVLLAVVDYQIITRCISSIYTNQKSDIESTSLYLIQVMEFTMLLIDLLNLFLQTCLNFWEFYRSQQSLSNENNHIVHGDPTDENTVESDQSQPVLNDDDDDDDDDRQFTGLEGKFMYEKAIDVFTRFLKTALHLSMLIPFRMPMMLLKDVVWDILALYQSGTSLWKIWRNNKQLDDTLVTVTVEQLQNSANDDNICIICMDELIHSPNQQTWKNKNKKPKRLPCGHILHLSCLKNWMERSQTCPICRLPVFDEK
B1 was tested. Which “stoichiometry N” value did it give?
The value was 2.
